Experimental findings from article PMC9455167 are described below.

Test [1] addresses Recombinant human Src kinase (Abcam 79635) (human) (UniProt P12931).
Test [2] has the same target. The experiment in a line: MST; RED-tris-NTA-labelled His-tagged Src kinase constant at 50 nM; unlabelled Na,K-ATPase 0.2 nM to 16 µM; 50 mM Tris/HCl pH 7.4, 150 mM NaCl, 10 mM MgCl2; Monolith NT.115, LED 100%, MST power 40%.

Turning to “Na,K-ATPase purified from duck salt glands (complex)”, the reduction of Src autophosphorylation at Tyr416 in vitro (purified Na,K-ATPase, Src kinase, ATP; Western blot p-Src/Src) in test [1] came to 70%. The Kd (commonly the free concentration of one partner at which half of the binding sites on the other are occupied at equilibrium, for simple one-to-one binding) in test [2] amounted to 210 nM.
